# Assay results taken from US20040081659.
# Columns and labels:
# [1] = system: 4-O-(Ac-SSChgQ-SS-P)-dAc-VIN
# [2] = system: 4-O-(Ac-Abu-SSChgQ-SP)-dAc-VIN
# [3] = system: 4-O-(Ac-4-trans-L-HypSSChgQS-Glycine)-(dAc)-VIN
# [4] = system: (4-O)-Ac-(4-trans-L-Hyp)SSChgQ-SL-(dAc)-VIN
# [5] = system: Ac-AbuSSChgQ-SS-(4-O-P)-dAc-VIN
# [6] = system: 4-O-(Ac-4-trans-L-HypSSChgQSS-Sar)-(dAc)-VIN
# [7] = system: 4-O-(Ac-SSChgQS-Gly)-(dAc)-VIN
# [8] = system: 4-O-(Ac-SSChgQ-SS-4-trans-L-Hyp)-dAc-VIN
# [9] = system: 4-O-(Ac-4-trans-L-HypSSChgQ-SS-4-trans-L-Hyp)-dAc-VIN
# [10] = system: Ac-4-trans-L-HypSSChgQ-SChg-(4-O-lactyl)-dAc-VIN
# [11] = system: des-Acetylvinblastine-4-O-(N-Acetyl-4-trans-L-Hyp-Ser-Ser-Chg-Gln-Ser-Ser-Pro) ester
# [12] = system: Ac-4-trans-L-HypSSChgQS-(4-O-Ala)-(dAc)-VIN
# [13] = system: Ac-AbuSSChgQ-S(dS)-(4-O-P)-dAc-VIN
# [14] = system: 4-O-(Ac-4-trans-L-HypSSChgQSL-lactyl)-(dAc)-VIN
# [15] = system: Ac-4-trans-L-HypSSChgQSChg-(4-O-glycolyl)-VIN
# [16] = system: 4-O-(Ac-4-trans-L-HypSSChgQSV-glycolyl)-VIN
# [17] = system: Ac-4-trans-L-HypSSChgQSS-(4-O-Sar)-(dAc)-VIN
# [18] = system: 4-O-((2-OH)Ac-Abu-SSChgQ-S-P)-dAc-VIN
substance,measurement,setting,value
free prostate specific antigen (PSA),Time to 50% Substrate Cleavage by York PSA,[1],15 min
same,Time to 50% Substrate Cleavage by York PSA,[2],80 min
same,Time to 50% Substrate Cleavage by York PSA,[3],30 min
same,Time to 50% Substrate Cleavage by York PSA,[4],35 min
same,Time to 50% Substrate Cleavage by York PSA,[5],7 min
same,Time to 50% Substrate Cleavage by York PSA,[6],32 min
same,Time to 50% Substrate Cleavage by York PSA,[7],55 min
same,Time to 50% Substrate Cleavage by York PSA,[8],22 min
same,Time to 50% Substrate Cleavage by York PSA,[9],13 min
same,Time to 50% Substrate Cleavage by York PSA,[10],14 min
same,Time to 50% Substrate Cleavage by York PSA,[11],17 min
same,Time to 50% Substrate Cleavage by York PSA (Min),[12],23 (prod converts to 4-O-A-dAc-VIN)
same,Time to 50% Substrate Cleavage by York PSA,[13],60 min
same,Time to 50% Substrate Cleavage by York PSA,[14],10 min
same,Time to 50% Substrate Cleavage by York PSA,[15],12 min
same,Time to 50% Substrate Cleavage by York PSA,[16],8 min
same,Time to 50% Substrate Cleavage by York PSA,[17],15 min
same,Time to 50% Substrate Cleavage by York PSA,[18],110 min
